These are literature values, as cited in paper PMC2845642.

pKd: −log10 of the molar value. Like-named read-outs stand apart in the source and are kept apart here.

Data set [1] has as its target CD28 (Homo sapiens) (UniProt P10747).
The target is the same in data set [2]. This is another data set of the same source.

CD80 (from UniProt P33681): the negative logarithm of the Kd (pKd) with CD28 (Homo sapiens) [1] is 5.40.
For the substance CD86 (from UniProt P42081), in the data set with CD28 (Homo sapiens) [2], the pKd is 4.70.
